Results on six molecules are retold here after patent US11156615B2 (priority 2015, dated 2021).

Where two headings read alike, the source gives them in different places.

Series [1] in a line: Glucose titration of bead-immobilized sensor. The format is binding. The settings on record: read-out: Kd (glucose); 25° C.; immobilized on NHS-functionalized agarose beads. From the text:
(§1) Panels A-C: ttGBP182C.2.0-Imm0; Panels D-F: ttGBP182C.2.0-Imm1 (see FIG. 13). (A) Solution (Tm=347.6K). (B) Immobilized on Nickel-nitriloacetic acid (Ni-NTA) beads (Tm=346.7K). (C) Reconstituted, desiccated Ni-NTA beads (Tm=347.6K). (D) Fluorescence response of ttGGBP5.2 Imm1 immobilized on NHS-functionalized agarose beads. Data was collected on a Roche LightCycler real-time PCS instrument, recording emission intensities at 488 nm and 510 nm as a function of temperature in a 384-well microtiter plate. […] Temperature melts of twelve different wells. Apo protein thermostability as reported by the denaturation mid-point temperature is 349 K, similar to the protein free in solution. […] (F) Representative Langmuir ligand-binding curve extracted from the three-dimensional data.
Data were highly precise, being reproducible <0.2% coefficient of variance.
(§2) Site-specific immobilization minimizes perturbation of the sensing mechanism. […] Similarly, hexa-lysine fusion domains were immobilized on agarose beads derivatized with N-hydroxysuccinimide, and the QNK- or βZif-fusion on iodacetyl-derivatized beads.

Series [2] is classed as physicochemical.
From the text: as §1, §2

A short description of series [3]: Thermostability: mid-point thermal denaturation temperature (Tm) from temperature-dependent fluorescence (Roche LightCycler). In kind it is physicochemical. The settings on record: for apoTm: Badan conjugate, apo-protein. In a few lines:
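Unfolding tracked by SYPRO binding to denatured protein, fluorescence at 488 nm/510 nm recorded on a LightCycler as temperature rose in 1 K steps. Tm taken as denaturation mid-point, for protein in solution or immobilized on Ni-NTA or NHS-agarose beads.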

The nature of series [4]: Glucose binding: isothermal fluorescence titrations, ratiometric (appKd) and monochromatic (trueKd) fits. The settings on record: Badan conjugate, room temperature. From the text: 2 For a single glucose-binding site, the fractional saturation is given by
[formula] where ^apoIλ2 and ^satIλ2 are the emission intensities of the monochromatic signal at wavelength λ2 of the ligand-free and ligand-bound protein, respectively.

The nature of series [5]: Glucose-dependent fluorescence emission intensity spectra of conjugates (Nanodrop3300). The format is biochemical. The settings on record: Nanodrop3300.
Series [6] in a line: Galactose binding: isothermal fluorescence titrations of conjugates. Also on record: key to Galactose trueKd: nb, no bonding. Particulars: Badan conjugate; for S, selectivity = trueKd(galactose)/trueKd(glucose): S > 1, selective for glucose; for Kd: read-out: Galactose trueKd.
Setting [7] is: read-out: Glucose appKd, dichromatic ratiometry.
Where [8] appears, read: read-out: Glucose trueKd, monochromatic titration curves.
[9] abbreviates: Badan conjugate of ttGGBP.17C mutant.
Where [10] appears, read: monochromatic titration curves, room temperature.
Setting [11] is: Acrylodan conjugate of ttGGBP.17C mutant.

B1: ttGGBP5.2 Imm1: ttGGBP182C.2.0 immobilization fusion construct Imm1 (SEQ ID NO: 175), labelled, on NHS-functionalized agarose beads (conjugate)
chain: MKQLNIGVAIYKFDDTFMTGVRNAMTAEAQGKAKLNMVDSQNSQPTQNDQVDLFITKKMNALAINPVDRTAAGTIIDKAKQANIPVVFFNKEPLPEDMKKWDKVYYVGAKAEQSGILQGQIMADYWKAHPEADKNHDGVMQYVMLMGEPGHQDAILRTQYSIQTVKDAGIKVQELAKDYANCDRVTAHDKMAAWLSSFGDKIEAVFANNDDMALGAIEALKSAGYFTGNKYIPVVGVDATAPGIQAIKDGTLLGTVLNDAKNQAKATFNIAYELAQGITPTKDNIGYDITDGKYVWIPYKKITKDNISDAEQGGSGGSKKKKKKGGSHHHHHH
modifications: fluorescent label; immobilized on NHS-agarose beads; ttGGBP182C.2.0_Imm1
Consider B1, for which, in series [1], the Kd turned out to be 4800 µM. Further, the “denaturation mid-point temperature (apo protein thermostability)” value in series [2] is 349 K.

B2: ttGBP182C.2.0-Imm0: ttGGBP182C.2.0 immobilization fusion construct Imm0 (SEQ ID NO: 173), Acrylodan labelled (conjugate)
chain: MKQLNIGVAIYKFDDTFMTGVRNAMTAEAQGKAKLNMVDSQNSQPTQNDQVDLFITKKMNALAINPVDRTAAGTIIDKAKQANIPVVFFNKEPLPEDMKKWDKVYYVGAKAEQSGILQGQIMADYWKAHPEADKNHDGVMQYVMLMGEPGHQDAILRTQYSIQTVKDAGIKVQELAKDYANCDRVTAHDKMAAWLSSFGDKIEAVFANNDDMALGAIEALKSAGYFTGNKYIPVVGVDATAPGIQAIKDGTLLGTVLNDAKNQAKATFNIAYELAQGITPTKDNIGYDITDGKYVWIPYKKITKDNISDAEQGGSHHHHHH
modifications: Acrylodan label; ttGGBP182C.2.0_Imm0
Take B2: the Tm in series [3] (solution (FIG. 14A)) is 74.5 °C; in series [2] (immobilized on Ni-NTA beads (FIG. 14B)), 73.6 °C; in series [2] (reconstituted, desiccated Ni-NTA beads (FIG. 14C)), 74.5 °C.

B3: ttGGBP17C.28: affinity-tuning mutant, 17C background, SEQ ID NO: 86 (protein)
chain: MKQLNIGVAIYKFDDTCMTGVRNAMTAEAQGKAKLNMVDSQNSQPTQNDQVDLFITKKMNALAINPVDRTAAGTIIDKAKQANIPVVFFNREPLPEDMKKWDKVYYVGAKAEQSGILQGQIMADYWKAHPEADKNHDGVMQYVMLMGQPGHQDAILRTQYSIQTVKDAGIKVQELAKDYANWDRVTAHDKMAAWLSSFGDKIEAVFANNDDMALGAIEALKSAGYFTGNKYIPVVGVDATAPGIQAIKDGTLLGTVLNDYKNQAKATFNIAYELAQGITPTKDNIGYDITDGKYVWIPYKKITKDNISDAEQGGSHHHHHH
modifications: ttGGBP17C.28 (affinity-tuning mutant, 17C background (Table 6) with signal peptide replaced with M and GGSHHHHHH at C-terminus)
Regarding B3, the Kd in series [4] (setting [7]) came to 60 µM; in series [4] (setting [8]), 70 µM; in series [6] (setting [10]), 2600 µM. In series [3], the apoTm is recorded as 346 K. For the same molecule, the “Type of fluorescence response to glucose” value in series [5] (setting [9]) is reported as “i (i, intensity increase only)”. The “S, selectivity = trueKd(galactose)/trueKd(glucose)” value in series [6] is reported as 37.

B4: ttGGBP17C.26: affinity-tuning mutant, 17C background, SEQ ID NO: 84 (protein)
chain: MKQLNIGVAIYKFDDTCMTGVRNAMTAEAQGKAKLNMVDSQNSQPTQNDQVDLFITKKMNALAINPVDRTAAGTIIDKAKQANIPVVFFNREPLPEDMKKWDKVYYVGAKAEQSGILQGQIMADYWKAHPEADKNHDGVMQYVMLMGQPGHQDAILRTQYSIQTVKDAGIKVQELAKDYANWDRVTAHDKMAAWLSSFGDKIEAVFANNDDMALGAIEALKSAGYFTGNKYIPVVGVDATAPGIQAIKDGTLLGTVLNDWKNQAKATFNIAYELAQGITPTKDNIGYDITDGKYVWIPYKKITKDNISDAEQGGSHHHHHH
modifications: ttGGBP17C.26 (affinity-tuning mutant, 17C background (Table 6) with signal peptide replaced with M and GGSHHHHHH at C-terminus)
As to B4, the Kd came to 900 µM in series [4] (setting [7]), 900 µM in series [4] (setting [8]) and 14000 µM in series [6] (setting [10]). In addition, the apoTm in series [3] was 346 K. The “Type of fluorescence response to glucose” value in series [5] (setting [11]) was “i (i, intensity increase only)”; in series [5] (setting [9]), “r(h) (r(h), ratiometric (hypsochromic shift))”. The “S, selectivity = trueKd(galactose)/trueKd(glucose)” value in series [6] was 16.

B5: ttGGBP17C.23: affinity-tuning mutant, 17C background, SEQ ID NO: 81 (protein)
chain: MKQLNIGVAIYKFDDTCMTGVRNAMTAEAQGKAKLNMVDSQNSQPTQNDQVDLFITKKMNALAINPVDRTAAGTIIDKAKQANIPVVFFNREPLPEDMKKWDKVYYVGAKAEQSGILQGQIMADYWKAHPEADKNHDGVMQYVMLMGQPGHQDAILRTQYSIQTVKDAGIKVQELAKDYANWDRVTAHDKMAAWLSSFGDKIEAVFANNDDMALGAIEALKSAGYFTGNKYIPVVGVDATAPGIQAIKDGTLLGTVLNDQKNQAKATFNIAYELAQGITPTKDNIGYDITDGKYVWIPYKKITKDNISDAEQGGSHHHHHH
modifications: ttGGBP17C.23 (affinity-tuning mutant, 17C background (Table 6) with signal peptide replaced with M and GGSHHHHHH at C-terminus)
Consider B5, for which the results for the Kd in series [4] (setting [7]) and in series [4] (setting [8]) were 15000 µM and 18000 µM, respectively. Besides, the apoTm in series [3] is on record as 344 K. The “Type of fluorescence response to glucose” value was “i (i, intensity increase only)” in series [5] (setting [11]) and “i (i, intensity increase only)” in series [5] (setting [9]). For the same molecule, the “Galactose trueKd” value in series [6] (setting [10]) is on record as “nb^c”.

B6: ttGGBP17C.27: affinity-tuning mutant, 17C background, SEQ ID NO: 85 (protein)
chain: MKQLNIGVAIYKFDDTCMTGVRNAMTAEAQGKAKLNMVDSQNSQPTQNDQVDLFITKKMNALAINPVDRTAAGTIIDKAKQANIPVVFFNREPLPEDMKKWDKVYYVGAKAEQSGILQGQIMADYWKAHPEADKNHDGVMQYVMLMGQPGHQDAILRTQYSIQTVKDAGIKVQELAKDYANWDRVTAHDKMAAWLSSFGDKIEAVFANNDDMALGAIEALKSAGYFTGNKYIPVVGVDATAPGIQAIKDGTLLGTVLNDFKNQAKATFNIAYELAQGITPTKDNIGYDITDGKYVWIPYKKITKDNISDAEQGGSHHHHHH
modifications: ttGGBP17C.27 (affinity-tuning mutant, 17C background (Table 6) with signal peptide replaced with M and GGSHHHHHH at C-terminus)
Regarding B6, the Kd in series [4] (setting [7]) came to 200 µM; in series [4] (setting [8]), 300 µM; in series [6] (setting [10]) it was 8800 µM. In series [3], this molecule returned an apoTm of 346 K. Further, in series [5] (setting [9]), the “Type of fluorescence response to glucose” value is given as “i (i, intensity increase only)”. For the same molecule, in series [6], the “S, selectivity = trueKd(galactose)/trueKd(glucose)” value is on record as 33.
